Data reported in publication PMC11785930.

Biological target: STAT3 (protein used in the ELISA) (UniProt P42227)
Assay: ELISA; documented protocol (ref. 44); which protein was coated and the conditions are not told

Kd: 120 nM
Substance: Becn1 (protein used in the ELISA) (from UniProt O88597 1-448) (natural protein)
